Data published in paper PMC8085985.

Biological target: Fervidobacterium islandicum AW‐1 SufS family cysteine desulfurase (FiSufS) (Fervidobacterium islandicum AW-1)
Test: SEC

Question: Which stoichiometry N does the source give for “Fervidobacterium islandicum AW‐1 SufS family cysteine desulfurase (FiSufS) (enzyme)” here?
Answer: 2
